The target of this assay is ef1a2_human EEF1A2 (UniProt Q05639).
Sequence of UniProt Q05639 (Q05639 whole entry): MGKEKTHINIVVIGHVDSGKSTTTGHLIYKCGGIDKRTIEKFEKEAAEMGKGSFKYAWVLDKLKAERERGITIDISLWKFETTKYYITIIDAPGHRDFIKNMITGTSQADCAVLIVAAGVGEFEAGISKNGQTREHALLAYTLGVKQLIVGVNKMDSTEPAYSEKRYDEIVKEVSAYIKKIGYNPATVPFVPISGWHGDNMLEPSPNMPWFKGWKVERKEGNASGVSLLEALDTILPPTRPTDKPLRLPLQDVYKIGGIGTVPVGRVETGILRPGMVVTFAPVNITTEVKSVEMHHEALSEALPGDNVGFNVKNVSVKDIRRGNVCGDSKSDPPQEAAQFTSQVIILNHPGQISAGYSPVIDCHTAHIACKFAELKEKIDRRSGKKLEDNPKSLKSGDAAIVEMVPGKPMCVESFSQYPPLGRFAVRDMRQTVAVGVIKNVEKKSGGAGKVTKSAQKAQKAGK

As for “Leucine-rich repeat serine/threonine-protein kinase 2 (Homo sapiens), Q5S007 G2019S”, the “effect of a mutation on the interaction” value is “increasing interaction”.
